Measurements taken from PMC11257990.
Several values for one entry are separate records, joined by “and”; a condition that tells them apart may be missing. Identical values can stand only once.

Target: CUL9 (endogenous, U2OS) (human (endogenous in U2OS)) (UniProt Q8IWT3)
Assay: sucrose gradient fractionation; 1 mg U2OS lysate on a continuous 5–40% sucrose gradient, 160,000g, 16 h, 4 °C; fractions immunoblotted for CUL9; purified hexameric CUL9–RBX1 and dimeric CUL9^(R125A Y152A)–RBX1 run for comparison
Details: remark: other sources report otherwise

- stoichiometry N: 6 and 2
Substance: CUL9 (endogenous, U2OS), Q8IWT3 1-2517
